One data set concerns the target T1, SerA (Achromobacter denitrificans, UniProt A0A3R9FY19).
T1 sequence (A0A3R9FY19 1-399): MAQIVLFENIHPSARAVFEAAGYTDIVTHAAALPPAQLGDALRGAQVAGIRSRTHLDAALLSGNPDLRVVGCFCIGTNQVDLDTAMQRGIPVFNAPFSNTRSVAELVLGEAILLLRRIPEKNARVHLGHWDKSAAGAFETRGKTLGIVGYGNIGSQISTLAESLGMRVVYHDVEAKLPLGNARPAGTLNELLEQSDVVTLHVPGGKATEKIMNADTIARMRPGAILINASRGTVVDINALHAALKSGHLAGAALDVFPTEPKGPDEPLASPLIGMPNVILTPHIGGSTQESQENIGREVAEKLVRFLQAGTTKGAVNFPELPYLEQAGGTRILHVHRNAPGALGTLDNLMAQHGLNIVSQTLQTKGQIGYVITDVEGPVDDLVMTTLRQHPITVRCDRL
Kind of data set: product of 2-KG reduction by purified enzyme. In kind it is biochemical.

For another data set, the target named is T2, DhdR.
T2 construct: His6-tagged DhdR
Kind of data set: ITC; also thermal shift (ΔTm […] °C), EMSA, AlphaScreen. It is filed as binding, Achromobacter denitrificans. (In general: Isothermal titration calorimetry measures the heat released or taken up as one component is titrated into another.)

Data set [1] has as its target 3-phosphoglycerate dehydrogenase (SerA) of Achromobacter denitrificans NBRC 15125 (Achromobacter denitrificans NBRC 15125). Kind of data set: SEC; Superdex 200 10/300 GL, 50 mM sodium phosphate, 150 mM NaCl, pH 7.2, 0.5 mL min^-1; native molecular weight against standard proteins, compared with SDS-PAGE. In general terms: Size exclusion chromatography separates by hydrodynamic size, large species first.

In data set [2] the target is D-2-HG dehydrogenase (D2HGDH) of Achromobacter denitrificans NBRC 15125 (Achromobacter denitrificans NBRC 15125). Described as above.
The next data set addresses WbpB (Pseudomonas aeruginosa, UniProt G3XD23). Kind of data set: HPLC product analysis, biosensor assay and bound-NADH oxidation with purified enzyme. In kind it is biochemical.
Data set [3] has as its target D-2-hydroxyglutarate dehydrogenase regulator (DhdR) of Achromobacter denitrificans NBRC 15125 (Achromobacter denitrificans NBRC 15125). Kind of data set: SEC; Superdex 200 10/300 GL, 50 mM sodium phosphate, 150 mM NaCl, pH 7.2, 0.5 mL min^-1; native molecular weight against standard proteins, compared with SDS-PAGE.
The target in data set [4] is T3, DhdR (GntR family regulator) (Achromobacter denitrificans NBRC 15125, UniProt A0A6N0JVZ6 1-238).
T3 sequence: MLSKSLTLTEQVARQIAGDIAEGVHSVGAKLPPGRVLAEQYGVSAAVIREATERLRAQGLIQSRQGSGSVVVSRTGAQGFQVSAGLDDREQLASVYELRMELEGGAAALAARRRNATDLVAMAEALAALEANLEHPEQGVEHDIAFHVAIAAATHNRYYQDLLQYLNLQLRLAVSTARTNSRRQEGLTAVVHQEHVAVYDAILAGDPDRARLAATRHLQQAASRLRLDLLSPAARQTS
Kind of data set: ITC; EMSA/footprint: 10 mM Tris-HCl pH 7.4, 50 mM KCl, 0.5 mM EDTA, 10% glycerol, 1 mM DTT, 30 C; ITC: 25 C, same buffer as FTS assays (composition not in material). To be noted: protein: recombinant; tags: His6 (pETDuet-1); chain copies: 2; blunt.

Data set [5] deals with T3, DhdR (GntR family regulator). Kind of data set: ITC; Supplementary Table 4 prints 3.03; EMSA/footprint: 10 mM Tris-HCl pH 7.4, 50 mM KCl, 0.5 mM EDTA, 10% glycerol, 1 mM DTT, 30 C; ITC: 25 C, same buffer as FTS assays (composition not in material). Conditions: protein: recombinant; tags: His6 (pETDuet-1); chain copies: 2; blunt.

Here are results for 19 molecules from paper PMC8651671.

WbpB, sequence (G3XD23 whole entry): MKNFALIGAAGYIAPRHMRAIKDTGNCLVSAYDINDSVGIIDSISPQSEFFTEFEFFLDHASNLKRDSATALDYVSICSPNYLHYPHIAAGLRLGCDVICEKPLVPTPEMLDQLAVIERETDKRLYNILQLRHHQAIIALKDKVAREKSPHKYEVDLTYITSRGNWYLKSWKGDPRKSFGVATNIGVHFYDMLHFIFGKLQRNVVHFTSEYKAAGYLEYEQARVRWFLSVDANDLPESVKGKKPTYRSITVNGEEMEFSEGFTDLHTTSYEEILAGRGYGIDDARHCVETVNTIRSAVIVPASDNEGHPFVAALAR

For `O=C(O)CC[C@@H](O)C(=O)O` [D-2-HG], the “product of 2-KG reduction by purified enzyme” value on SerA was “It was also able to reduce 2-KG to D-2-HG”. Also, on DhdR, the Kd (in general, the concentration at which binding is half-saturated) turned out to be 1.16 ± 0.16 µM.

Turning to “3-phosphoglycerate dehydrogenase (SerA) of Achromobacter denitrificans NBRC 15125 (enzyme)”, the stoichiometry N (in general, a count of units in the complex or per binding partner) in data set [1] was determined as 4.

In turn, “D-2-HG dehydrogenase (D2HGDH) of Achromobacter denitrificans NBRC 15125 (enzyme)” returned a stoichiometry N in data set [2] of 2.

In the case of `O=C(O)CCC(=O)C(=O)O` [2-KG], the “HPLC product analysis, biosensor assay and bound-NADH oxidation with purified en” value on WbpB is given as “confirmed that WbpB also catalyzes the reduction of 2-KG to produce D-2-HG”.

As to “D-2-hydroxyglutarate dehydrogenase regulator (DhdR) of Achromobacter denitrificans NBRC 15125 (natural protein)”, the stoichiometry N in data set [3] was determined as 2.

B1: D6 (dhdO 6#) (dsDNA)
DNA 1: AAAGTTATAAGATAACCTGAAAAGTAG
DNA 2: CTACTTTTCAGGTTATCTTATAACTTT
Take B1: the dissociation constant Kd in data set [4] was found to be 0.73 ± 0.18 µM.

B2: D13 (dhdO 13#) (dsDNA)
DNA 1: AAAGGTCTCAGATAACCTGAAAAGTAG
DNA 2: CTACTTTTCAGGTTATCTGAGACCTTT
Consider B2, for which, in data set [4], the dissociation constant Kd was found to be 2.46 ± 0.51 µM.

B3: D4 (dhdO 4#) (dsDNA)
DNA 1: AAAGTTCTCAGATAACCTGAAAAGTAG
DNA 2: CTACTTTTCAGGTTATCTGAGAACTTT
For B3, the Kd in data set [4] came out at 0.58 ± 0.09 µM.

B4: D7 (dhdO 7#) (dsDNA)
DNA 1: AAATGTATCAGATAACCTGAAAAGTAG
DNA 2: CTACTTTTCAGGTTATCTGATACATTT
Take B4: the equilibrium dissociation constant (Kd) in data set [4] came out at 5.81 ± 2.15 µM.

B5: D8 (dhdO 8#) (dsDNA)
DNA 1: AAATTGATCAGATAACCTGAAAAGTAG
DNA 2: CTACTTTTCAGGTTATCTGATCAATTT
For B5, the Kd in data set [4] turned out to be 4.02 ± 0.92 µM.

B6: D10 (dhdO 10#) (dsDNA)
DNA 1: AAATTTAGCAGATAACCTGAAAAGTAG
DNA 2: CTACTTTTCAGGTTATCTGCTAAATTT
As to B6, the binding result in data set [4] is reported as “no binding”.

B7: D12 (dhdO 12#) (dsDNA)
DNA 1: AAAGGGATCAGATAACCTGAAAAGTAG
DNA 2: CTACTTTTCAGGTTATCTGATCCCTTT
Turning to B7, in data set [4], the Kd is 6.25 ± 1.82 µM.

B8: D9 (dhdO 9#) (dsDNA)
DNA 1: AAATTTCTCAGATAACCTGAAAAGTAG
DNA 2: CTACTTTTCAGGTTATCTGAGAAATTT
Take B8: the Kd in data set [4] turned out to be 3.23 ± 1.27 µM.

B9: D11 (dhdO 11#) (dsDNA)
DNA 1: AAATTTATAAGATAACCTGAAAAGTAG
DNA 2: CTACTTTTCAGGTTATCTTATAAATTT
As for B9, the Kd in data set [4] amounted to 3.23 ± 1.41 µM.

B10: D3 (dhdO 3#) (dsDNA)
DNA 1: AAAGTGATCAGATAACCTGAAAAGTAG
DNA 2: CTACTTTTCAGGTTATCTGATCACTTT
In the case of B10, the Kd in data set [4] turned out to be 1.19 ± 0.25 µM.

B11: D2 (dhdO 2#) (dsDNA)
DNA 1: AAAGGTATCAGATAACCTGAAAAGTAG
DNA 2: CTACTTTTCAGGTTATCTGATACCTTT
On to B11, for which the Kd in data set [4] was 2.67 ± 0.53 µM.

B12: D0 (dhdO 0#) (dsDNA)
DNA 1: AAAGTTATCAGATAACCTGAAAAGTAG
DNA 2: CTACTTTTCAGGTTATCTGATAACTTT
Take B12: the dissociation constant (Kd) in data set [4] was 0.64 ± 0.1 µM.

B13: D5 (dhdO 5#) (dsDNA)
DNA 1: AAAGTTAGCAGATAACCTGAAAAGTAG
DNA 2: CTACTTTTCAGGTTATCTGCTAACTTT
For the molecule B13, the Kd in data set [4] came to 1.14 ± 0.37 µM.

B14: D1 (dhdO 1#) (dsDNA)
DNA 1: AAATTTATCAGATAACCTGAAAAGTAG
DNA 2: CTACTTTTCAGGTTATCTGATAAATTT
B14: the Kd in data set [5] was 3.29 ± 0.72 µM.
